These results are taken from patent publication US8603466 (KING S COLLEGE LONDON, dated 2013).

Where a chain is given by its changes, count along the chain named.

Assay [1] addresses human TSHR on stably transfected CHO cells (human, UniProt P16473 21-764). As to the kind of experiment: cell-based or functional assay.
Assay [2] addresses T1, human TSHR immobilised on coated tubes (TRAK II [DYNOtest human] kit) (human, UniProt P16473 21-764, limits assumed).
T1 construct: Receptor of a bought kit; also called human TSHR coated tubes; immobilized human TSHR
As to the kind of experiment: TBII assay, displacement of 125I-TSH from human TSHR coated tubes (TRAK II DYNOtest human). (Displacement assays read how much labelled ligand stays bound in the presence of the test substance.)

The target in assay [3] is T1, human TSHR immobilised on coated tubes …. As to the kind of experiment: saturation binding of 125I-IgG on human TSHR coated tubes (TRAK II DYNOtest human); printed as Kd but expressed as reciprocal Kd (L/mol). The procedure:
Free isotope was removed by gel filtration in SEPHAROSE™ G25 columns and specific activity calculated (7). Antibody affinity was measured by saturation binding analysis. […] The affinity results were expressed as reciprocal Kd values (L/mol).
The labeled IgG and Fab fragments of the mabs were then used as tracers in competition studies to study the epitopes on the receptor. […] Serum from normal individuals, with no family history of autoimmunity were used as controls.

B1: KSAb1 IgG (antibody, V domains shown)
VH: EVQLQQSGPELVKPGASMKISCKASGYSFSAYTMNWVKQSHGKNLEWIGLINPYNGGTNYNQEFEGKATLTVNKSSNTAFMELLSLTSDDSAVYYCARRDWDYFDYWGQGTTLTVSS
VL: DIVMTQSQKFMSTSVGDRVSIICKASQNVGTFVAWYQQKPGQSPKLLVYSASNRYTGVPDRFTGSGSGTDFTLTINNMQSEDLADYFCRQYSSYPYTFGGGTKLEI
notes: also called mAb9; IgG 9
Broadly, the IC50 is the midpoint of a concentration-inhibition curve. Low readings indicate greater potency, high ones weaker potency. Take B1: in assay [1], the “EC50 of cAMP stimulation, NaCl-free sucrose HBSS” value was 9.4 ng/mL; the “EC50 of cAMP stimulation, physiological NaCl HBSS” value turned out to be 16.5 ng/ml; the “IgG concentration giving 3 fold cAMP stimulation” value amounted to 1.2 ng/mL; the “maximal stimulation of cAMP, fold over basal value” came to 199 fold over basal. Moreover, the IC50 in assay [2] was 3.3 ng/mL. The Ka in assay [3] is 4.5e+10 M⁻¹.

B2: KSAb2 IgG (antibody, V domains shown)
VH: B1 VH with S30T, S40T, E63K, G66D, N73D, F80Y, E82D, D89E
VL: DVVMTQSQKFLSTSAGDRVSISCKASQNVGTALAWYQQKPGQSPKLLIYSASNRNTGVPDRFTGRGFGTDFTLTISNMQSEDLADYFCQQYSSYPYTFGGGTRLEI
notes: also called mAb17; IgG17
As for B2, in assay [1], the “EC50 of cAMP stimulation, NaCl-free sucrose HBSS” value came to 93 ng/mL; the “EC50 of cAMP stimulation, physiological NaCl HBSS” value came out at 100 ng/ml; the “IgG concentration giving 3 fold cAMP stimulation” value turned out to be 2.2 ng/mL; the “maximal stimulation of cAMP, fold over basal value” was 183 fold over basal. In addition, the half-inhibitory concentration (IC50) in assay [2] amounted to 10 ng/mL. In assay [3], the Ka came to 6.25e+10 M⁻¹.
